In publication PMC7955952:

Substrate: Nc1ncnc2c1ncn2[C@@H]1O[C@H](COP(=O)(O)OP(=O)(O)OP(=O)(O)O)[C@@H](O)[C@H]1O
Assay: Michaelis–Menten saturation kinetics
Type: biochemical, Homo sapiens
Conditions: Mn2+ ATP-binding pocket

B1: Focal adhesion kinase (FAK) (Homo sapiens) (protein)
chain: ETDDYAEIIDEEDTYTMPSTRDYEIQRERIELGRCIGEGQFGDVHQGIYMSPENPALAVAIKTCKNCTSDSVREKFLQEALTMRQFDHPHIVKLIGVITENPVWIIMELCTLGELRSFLQVRKYSLDLASLILYAYQLSTALAYLESKRFVHRDIAARNVLVSSNDCVKLGDFGLSRYMEDSTYYKASKGKLPIKWMAPESINFRRFTSASDVWMFGVCMWEILMHGVKPFQGVKNNDVIGRIENGERLPMPPNCPPTLYSLMTKCWAYDPSRRPRFTELKAQLSTILEEEKAQQEERMRMESRRQ
Km: 6.4 ± 1.2 µM
